Source: the DeepSol protein solubility set

Experiment: soluble on expression in E. coli; label from the status in PepcDB or PDB records

With “MGSDKIHHHHHHMSFDLALFSSKLRRCREQFEKSLVEVTTATGIPENILAALENGERQPTGDEVLIFADYYLCDYQFFISNERVASFDQTETLFRRYGEEFSKEDRLAVQEFLFLCECEDFLLKLVQTHIYKPFSFIKRGNYYIGHGKEAAKALRKHLGYASNAVRMDVYEDFRSLGFHIFRRQLGNSNISGLFIKHPTAGKCILVNYSEDIYRQRFTAAHESAHGILDDEQEFVISLKTDKKNLVEVRANNFASDYLMPPEFLQKIPDSQTWTPEKAIEWANKLKVSTEALANALKSANFISENVEIQIKAVRVPRDLKVDPELPESLSFGSRQRREKLLKRGLSNFYVGLCFDVYEQGFISAGRVAEMLLVSKYELTEIASIYGRTIRYGD” as the sequence, how does the “soluble on expression in E. coli” value read?
Its value is “not soluble”.

With “MGSDKIHHHHHHMSFDPFGDFETTGYLRNSLGLKDPAEVKENEHFSFEMGLDEALSYLERTKNLNYQALLQVHRLLFEKFYPWAGRDRLELVPHLSVWKGPKGAPRRTFFESPAMIERAVDYALSLASKKQGFMQKPGEVMGLLCFAHPFLDGNGRSILLFYMELSYRAGFAIDWASTRKDDYLQALDDEIHNPGKGHLDRYLVPFVVPIHSRDQWPEIIGQINGLDGMDGENITYENLDDPEVQKVYAAYHAEHPYPAKDGTPDSEP” as the sequence, how does the “soluble on expression in E. coli” value read?
The value was “not soluble”.

Which “soluble on expression in E. coli” value does the source give for “MGSDKIHHHHHHMSFNIGLSGIQAASSGLNVTGNNIANAGTVGFKQSRAEFADVYAASVLGSGSNPQGSGVLLSDVSQMFKQGNIDSTNSVLDLAINGNGFFVTSNNGAISYTRAGYFNTDKQDFIVDNNGYRLQGYAVGPNGQLQNGVVTDLKVERANQAPQATSSIQQSYNLNSTLKPPTVTPFDPSDAATYNSSSSLGIYDSQGNSHTMSQFFIKNEPDPNATPPIPENSWTMKVLIDGVNPLDPSNKTPMSFNVTFDASGQMTSVRAPDGSTSGPGFSIDATTNVIQFSPATGNPPTPGTGWIPAASDGKTPPTYAWNGATGAASGISFDMRKTTQYSTAFAQSNPIQDGYTTGQLAGLEIDDTGVIFARYTNGQSKVQGQVVLANFANIQGLTPIGKTSWVQSSESGEPAVGAPRSGTLGALQSGALEASNVDISNELVNLIVHQRNYQANAKTIQTEDAVTQTIINLR” here?
Its value is “not soluble”.

Which “soluble on expression in E. coli” value does the source give for “MGSDKIHHHHHHMSGETFEFNIRHSGKVYPITLSTDATSADLKSKAEELTQVPSARQKYMVKGGLSGEESIKIYPLIKPGSTVMLLGTPDANLISKPAKKNNFIEDLAPEQQVQQFAQLPVGFKNMGNTCYLNATLQALYRVNDLRDMILNYNPSQGVSNSGAQDEEIHKQIVIEMKRCFENLQNKSFKSVLPIVLLNTLRKCYPQFAERDSQGGFYKQQDAEELFTQLFHSMSIVFGDKFSEDFRIQFKTTIKDTANDNDITVKENESDSKLQCHISGTTNFMRNGLLEGLNEKIEKRSDLTGANSIYSVEKKISRLPKFLTVQYVRFFWKRSTNKKSKILRKVVFPFQLDVADMLTPEYAAEKVKVRDELRKVEKEKNEKEREIKRRKFDPSSSENVMTPREQYETQVALNESEKDQWLEEYKKHFPPNLEKGENPSCVYNLIGVITHQGANSESGHYQAFIRDELDENKWYKFNDDKVSVVEKEKIESLAGGGESDSALILMYKGFGL” here?
Its value is “not soluble”.

With “MGSDKIHHHHHHMSGHKCYPWDLQDRYAQDKSVVNKMQQKYWETKQAFIKATGKKEDEHVVASDADLDAKLELFHSIQRTCLDLSKAIVLYQKRICFLSQEENELGKFLRSQGFQDKTRAGKMMQATGKALCFSSQQRLALRNPLCRFHQEVETFRHRAISDTWLTVNRMEQCRTEYRGALLWMKDVSQELDPDLYKQMEKFRKVQTQVRLAKKNFDKLKMDVCQKVDLLGASRCNLLSHMLATYQTTLLHFWEKTSHTMAAIHESFKGYQPYEFTTLKSLQDPMKKLVEKEEKKKINQQESTDAAVQEPSQLISLEEENQRKESSSFKTEDGKSILSALDKGSTHTACSGPIDELLDMKSEEGACLGPVAGTPEPEGADKDDLLLLSEIFNASSLEEGEFSKEWAAVFGDGQVKEPVPTMALGEPDPKAQTGSGFLPSQLLDQNMKDLQASLQEPAKAASDLTAWFSLFADLDPLSNPDAVGKTDKEHELLNA” as the sequence, how does the “soluble on expression in E. coli” value read?
Its value is “not soluble”.

Which “soluble on expression in E. coli” value does the source give for “MGSDKIHHHHHHMSGIINNREYRQKVLKEIILELHNGKSVDEVRKRFQELIKGVSTKEISEMEAQLIKEGMKVEEIQRLCDVHAAVFKGSIDQIHHPEKEEGHPVSVLKKENEAVKNYIQSHLTPNLEEIKKSDSHSTRLKLMENISMLFDLDKHYSRKENLIFPYLEKYGITAPPKVMWGVDDEIREALKECKEVINSANKTPNEITEKVESTLKRIEEMIFKEESILLPMCIDTFSEDEWLDIESESDEIGYCLISPSEKWKPKRENVEEKEKSKLANENSEGYIKFDTGILRVNELSAILDTLPLDITFVDKDGTVKYFSGGSERIFARTRAVIGRKVQNCHPPASVHIVEKVVEDLKSGKKDHEDFWLHMGELYVFIRYYAVKDNKGEFIGVLEVTQNIKEIQEITGEKRLIE” here?
Its value is “not soluble”.

Which “soluble on expression in E. coli” value does the source give for “MGSDKIHHHHHHMSGQLHKMWYFPHMNQHEATVTDGDELQQFIAEAIALVGGVRALASIAGVSERTVYAWKNGERFPSRTNLNRLSEHLEHLSRQGYSPSAPQPHWRALRERMPGSYAPQQPDDTDRLTEEFVFVDKAEARPSAGGGSLETSARAETRYAFRLDWVLQKTPTSEGLRMMEVAGRSMENTLHNGDLVLVNERDVHLVEDRVYVVRVHDEIYVKRFARTPGCYHFRGDNRELAYQDISIDPRDENLDWEVIGRVLWAGKEL” here?
The value was “not soluble”.

For “MGSDKIHHHHHHMSIPIIDLSQFQISNQVRRQNVVKNIYQACHEIGFMYIQNSGISPDLLEQVFSASKSFFDSPLAVKEQLAWNNEFINTGYVGLEREHLNPNQPGDLKEAFNIKNDIIINNFSSPILLTNNPVISTFYNACTELANTVLQAFALALELPEYFFTTRHNQKNHTLRLLHYPPLQTSPKPGQVRAGEHSDYGSLTLLFQHAVGGLEVQTTRKEWIAAPLIPGMVLVNTGDLMQRWTNHIFCSTKHRVMIPNDERVKKSRYSIAFFCHPNDDTEIACLESCSQRQSPIYPPILAGEYLLSSLQLTY”, which “soluble on expression in E. coli” value is on record?
The value was “not soluble”.

Which “soluble on expression in E. coli” value does the source give for “MGSDKIHHHHHHMSKDCTIQDVFHRFYSSFESTHSISPAQRKAAYHIMNCKTGAFGVNVSVCEDCGCISVHYNSCRDRCCPMCQEFPKEKWVDARREDILDAPYFHVVFTVPEELNPIIYSNQKFLYAALYHAASDTLSELAADSKYLGTDIGYICILHTWGSTMNFHPHIHAIVLGGGLDVKNHWKDNGKDFFLPIKVISKTFRGKYMAELKQLWENDRLEFHGSAAPYKNHYTFKELLNTCYAKEWIPYCKKPFDGAESVIRYLGKYTHRIAISNYRIKDMTESTVTFSAKDYKNQGLWKEITISGEEFIRRFLMHVPPKRFVRIRHYGLLSSRNKKKKITLCRNILGCKKYISKLKDMDAPAIIRLLYNKDICKCSSCGGKIIPLPTEQHFIKPKPHMLC” here?
The value was “not soluble”.

Which “soluble on expression in E. coli” value does the source give for “MGSDKIHHHHHHMSKHQNDNPRVPHEAAPLRVLHVGPGQGQRGGIASVLAELSAQRARFRDAGVVVAIFETHGFQSMRSLLCFPLVDIPRFLFAVLKGVDLIHFHVSVRGSFYRKFLLYLLARLFGKRTIFHLHAGNFQDFWASNGPTTRKAVSRFIRGADAVVAVSSAIASELQGHQGVTRNLYVIGNTAYSAELAAGAALRDSSGGKRVDMTPYVAFAGRFTEGKGLDELLRAVAALNRRGLKVQLRLAGAGDMDRWTRAAIEYGVSDQVRFVGWLQGDAKLEFYRDAAVFCMPSHFEAFGISTLEAMFIGRPVIGTRVGGFLDLVEEGVTGYLVRCGDSHGLAERIRHLVERPELAHEMGRQAVSRALSRYSVDAIVSQYARCYRQVNGSRGA” here?
The value was “not soluble”.

For “MGSDKIHHHHHHMSKIDELVFTPKQQDTITFPFQNVTLEVNEGTPRSGKTTADIFKMAYIYSISEDQNHLVTAYNQEQAFRLFMDGDGFGLMHIFGNLAEMKHDEHGDHLLIHSPNGPKKIYYKGGGKINSVGAITGMSLGTVTFLEINLLHKDFIEECFRRTFAAKNRFHLAELNPPAPNHPVLEIFSQYEKSGRYKWRHWTAKDNPALSDERKQEIYNEVKHSAYLLQRDWYGKRVLPAGIIYETFDVEANQIKKMQGHPIEMVFFGDGGQQDATVCECYVITEHEAEGGYTYNLNQVATYYHSGRDTGQVKAGSTYAIEIKQFIQWCMKEYEVPVNEPVFIDPACRWLREELEKVGVDTAGADNNAHDVTGKAQGIEVGIERMQSLLSERRYLLVEQPNDQYDHYSWLQEIGMYVRDENSGKPVDKNNHAMDTSRYATNYFYRNYEDI”, which “soluble on expression in E. coli” value is on record?
Its value is “not soluble”.

For “MGSDKIHHHHHHMSKIKVALLVDEYFGGAKTKYGGYGFLARHLVAKHLPDDQVDVDVLLKKDCGKVRLWPKCFMVDGIRVYKLAARAFDWVNNLFLRQKNYDVFLSIEMTTHSYRIFSKAPGKNKKLLFWIQDPRPTYEWDEIQTVKLFPEPSYWDAEIYDFVNQYARSGNVRFISQAKCLDQKARDLYRLPANTSINYLPNPIEIDETFDLDSFPKQNSIIFLGRIESVKRGWLFAEIAKAMPQCQFYMLGQAHRQADENNAVMSGYQAIPNLHFVGHVEGEQKNRFLKEAKVLVNTSIHEALPISFLEALSYGTLLVSCQNPDELASKFGVYTGKVLGDGFDKVELFVAGINQLLTNDDHRHQLAKDAIAYIKEVHSLSRFTGDIKHELLTLCASRNEPVKATGRTTTSTVQ”, which “soluble on expression in E. coli” value is on record?
Its value is “not soluble”.

For “MGSDKIHHHHHHMSKPLNFVMISPHFPANFETFAVRLKECGFNTLGIADTPYEQLSENLRNSLTEYYRVDNMEDYEQVYRAVGYFAHKYGRIDRIESHNEYWLELDAKLRTDFNVPGYKNDDMLAIKTKAQMKEIFRQAGLKVAQGKVFNSDDEARKLAKKLKFPVIIKPNSGVGASDTYKIKSVQELEDFFSYKNAHVEYIMEEFIDGDIITFDGLTDKEGNIVFYSGLEYSECVLDTVENDNDMFYYVPREISTDLIKLGQKCVDAFNVRERFFHFEFFRVKKTGDLMPLEINCRPPGGLTIDMWNYANDFDVFREYANIVKENKFYTNITHPWNVVYISRKANKNYVNAIEDVQQKYSTNIISVQTVPGVFAKIMGEHGILARTETLDQMHEIAQFAQQKA”, which “soluble on expression in E. coli” value is on record?
Its value is “not soluble”.

For “MGSDKIHHHHHHMSKPSRWPLTADGIRFITPHVLVKRLQNHALAKGLFVTAMGYYPTASGHAMERKGHPDHILIYCTAGSGFLTMAGKTTEINSGDIFYLPAGSQHSYQASKELPWTLYWLHFDGTLANDFCQHINIVERKFTIGVQPRVIRVFDGISHLRHSSHNLAEFIQGGHQVQALLSYIALLVQQRKPSAINTFDTENLRAMMQEHIHSKLDLDSLAEAAKLSKYHFSKKFKQVTGESPISYFINMKMQRACYLLDSTPRSVKHVASELGYHDTYYFSRLFKKNIGMAPAIYRKAKL”, which “soluble on expression in E. coli” value is on record?
Its value is “not soluble”.

With “MGSDKIHHHHHHMSKVFIIGLPRTGTTSISVALLEMGLSVAHTAFTKKAFEMADAVTDAPCFSDYMHLDRIFPHAKFIYLTREMAKWVPSIIMLLEKMAPHLDPKTGKFNPILKRSFHHTFPGTLPLTENELIDCYTRHEQAVLSYFEGRDDFLSIDISKQGSLLEMKMFLGIEAQGSADFPKLNVGRDVASWKDYKHPNKINSNLAGVEHRKYYDYALVDYRTY” as the sequence, how does the “soluble on expression in E. coli” value read?
Its value is “not soluble”.

For “MGSDKIHHHHHHMSLAQFQSVECADCPIRHRAVCARCDADELEALDAIKFYRSYEAGQTVVWSGDQMNFVGSVVSGIATLTQTMEDGRTQMVGLLLPSDFVGRPGREGSAYDVVATTDVIMCCFRKKPFEDLMVRTPHIAHRLLEMTLDELDAAREWMLVLGRKTAREKIASLLSIIARRDASLAVDPSNGAVSFDLKLTREAMADYLGLTLETVSRQISALKKAGVIQLEGKRHVTVPDMHRLIEEAGDDSDGGVLG”, which “soluble on expression in E. coli” value is on record?
Its value is “not soluble”.

With “MGSDKIHHHHHHMSLEGLSINFATVRQGGNFGAIVDACLAHGITAISPWREQVHGVGLAEAARIVEQNGLRLSGHCRGGFFPAIDADGRRRAIEDNKRAVDEAAAMKADCLVLVVGGLPAGSRDLKGARQMVEDGMAKLLPYARAAGVPLAIEPLHPFYAAERACFNTLKQSLDLCDRLGAGTGVAIDVYHVWWDPELEEQVARAGRNGQILAHHICDWLVPTTDPLNDRGMMGDGVIDLKAFRAMIEAAGFHGPQEVEIFSHRWQARPMDEVLATVVERFKTVC” as the sequence, how does the “soluble on expression in E. coli” value read?
Its value is “not soluble”.
